# Data as given in PMC5655127.
# Target: KpBest^ΔC11 L177T (Klebsiella pneumoniae)
# Test: crystal structure; KpBest^ΔC11 L177T, sitting-drop vapor diffusion at 20°C, 0.05 M zinc acetate, 6% ethylene glycol, 0.1 M sodium cacodylate pH 6.0, 6.6% PEG 8000; solved to 3.1 Å by molecular replacement with 4WD8
substance,measurement,value
KpBest^ΔC11 L177T (natural protein),stoichiometry N,5
